Data taken from patent publication US6403637.

Tests used:
[1] = target: collagenase-3 dual receptor system on UMR 106-01 cells (collagenase-3 receptor and low density lipoprotein receptor-related protein); test: competition with ^125I mouse collagenase-3 on UMR-106-01 cells; 200-, 400- and 800-fold excess of competitor
[2] = target: collagenase-3 receptor and low density lipoprotein receptor-related protein on MEF-1 cells; test: competition with ^125I mouse collagenase-3 on MEF-1 cells; 200-, 400- and 800-fold excess of competitor
[3] = target: collagenase-3 receptor (170 kDa protein) of mouse embryo fibroblasts MEF-1 and MEF-2 (mouse) (UniProt Q64449); test: competition with ^125I mouse collagenase-3 on MEF-2 (LRP null) cells; 200-, 400- and 800-fold excess of competitor
Chain of collagenase-3 receptor (170 kDa protein) of mouse embryo fibroblasts MEF-1 and MEF-2 (mouse) (Q64449 31-1479): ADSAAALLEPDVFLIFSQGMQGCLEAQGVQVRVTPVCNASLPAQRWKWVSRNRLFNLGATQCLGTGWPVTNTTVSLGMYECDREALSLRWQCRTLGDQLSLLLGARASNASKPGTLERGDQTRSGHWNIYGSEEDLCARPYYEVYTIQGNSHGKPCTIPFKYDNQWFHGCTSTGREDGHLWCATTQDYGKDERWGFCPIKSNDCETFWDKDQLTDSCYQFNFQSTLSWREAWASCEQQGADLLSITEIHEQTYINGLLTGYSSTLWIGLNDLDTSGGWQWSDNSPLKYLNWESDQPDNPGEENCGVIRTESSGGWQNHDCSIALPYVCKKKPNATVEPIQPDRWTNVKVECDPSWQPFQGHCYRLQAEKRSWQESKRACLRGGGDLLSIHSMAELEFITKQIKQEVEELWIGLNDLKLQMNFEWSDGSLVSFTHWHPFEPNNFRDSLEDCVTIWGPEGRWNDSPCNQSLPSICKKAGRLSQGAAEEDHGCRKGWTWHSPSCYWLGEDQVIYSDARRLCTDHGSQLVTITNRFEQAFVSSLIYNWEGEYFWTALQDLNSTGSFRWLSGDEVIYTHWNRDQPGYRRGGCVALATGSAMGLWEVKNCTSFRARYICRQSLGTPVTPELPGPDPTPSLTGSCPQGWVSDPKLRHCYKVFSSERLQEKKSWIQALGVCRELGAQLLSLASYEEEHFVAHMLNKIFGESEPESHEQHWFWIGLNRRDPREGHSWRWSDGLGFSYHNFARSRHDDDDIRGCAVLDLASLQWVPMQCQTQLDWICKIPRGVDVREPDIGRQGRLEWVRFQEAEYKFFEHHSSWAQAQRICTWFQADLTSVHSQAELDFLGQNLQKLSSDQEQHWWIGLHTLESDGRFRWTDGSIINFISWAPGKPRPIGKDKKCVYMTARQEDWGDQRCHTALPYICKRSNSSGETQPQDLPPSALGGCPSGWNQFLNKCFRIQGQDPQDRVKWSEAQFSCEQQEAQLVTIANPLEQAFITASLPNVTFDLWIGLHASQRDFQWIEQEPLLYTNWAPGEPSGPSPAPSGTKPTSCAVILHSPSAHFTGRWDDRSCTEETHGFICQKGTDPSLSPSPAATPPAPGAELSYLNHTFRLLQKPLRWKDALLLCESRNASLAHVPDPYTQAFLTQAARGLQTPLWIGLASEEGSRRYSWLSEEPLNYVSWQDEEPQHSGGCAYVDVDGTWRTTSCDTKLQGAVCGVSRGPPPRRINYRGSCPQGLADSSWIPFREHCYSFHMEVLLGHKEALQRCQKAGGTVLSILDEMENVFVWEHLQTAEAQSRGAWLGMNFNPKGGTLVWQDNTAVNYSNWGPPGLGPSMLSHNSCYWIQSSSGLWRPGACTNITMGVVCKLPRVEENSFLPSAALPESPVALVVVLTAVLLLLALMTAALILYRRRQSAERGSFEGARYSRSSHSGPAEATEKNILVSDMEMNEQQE

[4] = target: collagenase-3 dual receptor system on UMR 106-01 cells (collagenase-3 receptor and low density lipoprotein receptor-related protein); test: competition with ^125I mouse collagenase-3 on UMR cells
[5] = target: low density lipoprotein receptor-related protein of human chondrocytes (UniProt Q07954)
[6] = target: low density lipoprotein receptor-related protein of human chondrocytes (UniProt Q07954); test: cell-based or functional assay
[7] = target: rat collagenase-3 receptor (170 kDa protein) of UMR 106-01 rat osteosarcoma cells and other rat cells (rat); test: ^125I-labeled ligand at 8 nM on UMR cells, triplicate wells
Chain of rat collagenase-3 receptor (170 kDa protein) of UMR 106-01 rat osteosarcoma cells and other rat cells (rat) (Q4TU93 31-1480): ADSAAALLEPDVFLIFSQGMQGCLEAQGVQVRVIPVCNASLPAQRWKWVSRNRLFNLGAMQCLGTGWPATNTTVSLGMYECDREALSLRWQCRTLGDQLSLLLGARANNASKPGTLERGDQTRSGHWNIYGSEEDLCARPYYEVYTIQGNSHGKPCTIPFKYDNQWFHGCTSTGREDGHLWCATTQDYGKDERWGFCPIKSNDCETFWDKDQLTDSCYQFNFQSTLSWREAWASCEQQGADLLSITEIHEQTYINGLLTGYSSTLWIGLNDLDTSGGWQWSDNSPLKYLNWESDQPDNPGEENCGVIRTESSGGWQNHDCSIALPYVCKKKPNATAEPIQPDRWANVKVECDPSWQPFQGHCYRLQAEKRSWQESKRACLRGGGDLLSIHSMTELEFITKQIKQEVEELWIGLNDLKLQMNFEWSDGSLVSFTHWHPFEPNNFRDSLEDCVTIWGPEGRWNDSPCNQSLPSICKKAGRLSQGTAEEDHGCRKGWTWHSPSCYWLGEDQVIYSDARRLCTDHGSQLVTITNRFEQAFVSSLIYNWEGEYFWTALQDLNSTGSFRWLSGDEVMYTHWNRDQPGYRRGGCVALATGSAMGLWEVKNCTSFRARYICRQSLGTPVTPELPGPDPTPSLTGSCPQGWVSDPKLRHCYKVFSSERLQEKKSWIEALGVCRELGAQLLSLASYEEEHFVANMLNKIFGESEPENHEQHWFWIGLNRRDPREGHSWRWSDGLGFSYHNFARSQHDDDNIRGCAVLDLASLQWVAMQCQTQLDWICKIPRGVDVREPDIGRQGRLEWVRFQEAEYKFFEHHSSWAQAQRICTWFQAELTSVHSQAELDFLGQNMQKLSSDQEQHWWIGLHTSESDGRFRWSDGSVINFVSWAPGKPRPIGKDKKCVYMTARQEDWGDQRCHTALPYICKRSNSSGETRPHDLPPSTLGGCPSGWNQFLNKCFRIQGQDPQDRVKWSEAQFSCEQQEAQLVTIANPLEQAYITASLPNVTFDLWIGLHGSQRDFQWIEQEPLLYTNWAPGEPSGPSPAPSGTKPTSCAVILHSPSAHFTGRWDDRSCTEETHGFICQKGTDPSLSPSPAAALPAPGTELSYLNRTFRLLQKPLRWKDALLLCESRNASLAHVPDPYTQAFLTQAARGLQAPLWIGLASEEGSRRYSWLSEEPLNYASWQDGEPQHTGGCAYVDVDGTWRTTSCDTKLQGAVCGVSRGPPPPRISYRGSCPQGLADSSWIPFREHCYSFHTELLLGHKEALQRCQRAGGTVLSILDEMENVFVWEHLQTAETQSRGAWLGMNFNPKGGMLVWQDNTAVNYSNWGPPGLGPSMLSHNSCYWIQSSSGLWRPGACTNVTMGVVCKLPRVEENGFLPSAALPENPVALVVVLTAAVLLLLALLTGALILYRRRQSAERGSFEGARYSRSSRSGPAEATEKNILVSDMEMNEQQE

[8] = target: rat collagenase-3 receptor (170 kDa protein) of UMR 106-01 rat osteosarcoma cells and other rat cells (rat); test: ^125I-labeled ligand at 10 nM on UMR cells, triplicate wells

Chain of human fibroblast collagenase-1 (MMP-1) (P03956 100-469): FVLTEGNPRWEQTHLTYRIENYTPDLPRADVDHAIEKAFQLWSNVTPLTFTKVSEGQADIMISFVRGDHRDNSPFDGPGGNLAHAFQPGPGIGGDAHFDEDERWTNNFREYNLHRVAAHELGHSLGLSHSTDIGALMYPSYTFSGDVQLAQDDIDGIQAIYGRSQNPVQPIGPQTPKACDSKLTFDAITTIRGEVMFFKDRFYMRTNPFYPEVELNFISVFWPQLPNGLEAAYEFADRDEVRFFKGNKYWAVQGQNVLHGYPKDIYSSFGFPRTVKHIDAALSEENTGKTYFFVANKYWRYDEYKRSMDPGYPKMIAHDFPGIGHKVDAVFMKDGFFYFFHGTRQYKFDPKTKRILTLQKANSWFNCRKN
Chain of human 72 kDa gelatinase (MMP-2) (P08253 30-660 limits assumed): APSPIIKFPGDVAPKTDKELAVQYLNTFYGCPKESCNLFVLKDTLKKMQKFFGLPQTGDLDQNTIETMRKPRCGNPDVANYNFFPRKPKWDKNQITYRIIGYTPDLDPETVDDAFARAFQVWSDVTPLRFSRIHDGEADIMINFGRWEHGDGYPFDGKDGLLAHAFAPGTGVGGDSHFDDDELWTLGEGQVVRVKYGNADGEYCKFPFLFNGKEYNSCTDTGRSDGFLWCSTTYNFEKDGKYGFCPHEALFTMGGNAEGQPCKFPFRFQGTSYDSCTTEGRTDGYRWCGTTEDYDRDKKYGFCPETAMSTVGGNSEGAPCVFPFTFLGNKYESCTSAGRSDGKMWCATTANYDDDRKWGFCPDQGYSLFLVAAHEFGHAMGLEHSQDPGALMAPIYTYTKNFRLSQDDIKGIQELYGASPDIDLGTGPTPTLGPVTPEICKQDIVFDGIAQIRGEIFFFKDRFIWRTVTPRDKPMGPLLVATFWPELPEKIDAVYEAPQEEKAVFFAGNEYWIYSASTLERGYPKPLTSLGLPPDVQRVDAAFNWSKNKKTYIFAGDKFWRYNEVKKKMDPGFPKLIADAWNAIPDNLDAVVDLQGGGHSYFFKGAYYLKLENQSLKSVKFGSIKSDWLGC
Chain of human 92 kDa gelatinase (MMP-9) (P14780 20-707 limits assumed): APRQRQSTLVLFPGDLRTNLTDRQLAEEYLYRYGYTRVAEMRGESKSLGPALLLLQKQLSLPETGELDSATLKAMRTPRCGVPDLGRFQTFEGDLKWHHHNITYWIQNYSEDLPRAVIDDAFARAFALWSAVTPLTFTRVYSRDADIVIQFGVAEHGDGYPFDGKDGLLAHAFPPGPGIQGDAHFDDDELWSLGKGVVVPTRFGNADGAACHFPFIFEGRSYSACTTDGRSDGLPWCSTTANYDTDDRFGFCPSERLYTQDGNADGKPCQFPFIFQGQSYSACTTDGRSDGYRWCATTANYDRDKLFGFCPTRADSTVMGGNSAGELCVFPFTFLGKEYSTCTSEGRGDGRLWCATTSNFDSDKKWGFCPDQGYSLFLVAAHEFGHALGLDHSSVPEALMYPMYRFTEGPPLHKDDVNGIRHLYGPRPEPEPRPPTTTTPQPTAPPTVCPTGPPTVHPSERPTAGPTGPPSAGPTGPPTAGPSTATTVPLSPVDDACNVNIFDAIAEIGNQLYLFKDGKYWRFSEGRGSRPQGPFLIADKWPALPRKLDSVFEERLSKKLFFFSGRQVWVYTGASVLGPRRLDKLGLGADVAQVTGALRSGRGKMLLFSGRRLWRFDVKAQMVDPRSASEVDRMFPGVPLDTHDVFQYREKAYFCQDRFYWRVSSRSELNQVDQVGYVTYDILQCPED

Substance: C-terminally truncated mouse collagenase-3, M(1-265) (from UniProt P33435 20-265) (enzyme)
- percent of mouse collagenase-3 binding [1]: 100%
- percent of mouse collagenase-3 binding [2]: 100%

Substance: H/M(229-472) chimeric collagenase (from UniProt P03956 20-223; P33435 229-472) (enzyme)
- percent of mouse collagenase-3 binding [1]: 16.5%
- percent of mouse collagenase-3 binding [2]: 2.2%

Substance: HM(141-228)/H chimeric collagenase (from UniProt P03956 20-135; P33435 141-228; P03956 224-408) (enzyme)
- percent of mouse collagenase-3 binding [1]: 89.9%
- percent of mouse collagenase-3 binding [3]: 75.1%
- percent of mouse collagenase-3 binding [2]: 94.3%

Substance: HM(166-228)/H chimeric collagenase (from UniProt P03956 20-160; P33435 166-228; P03956 224-408) (enzyme)
- percent of mouse collagenase-3 binding [1]: 67.8%
- percent of mouse collagenase-3 binding [3]: 97.2%
- percent of mouse collagenase-3 binding [2]: 80.8%

Substance: HM/M(141-472) chimeric collagenase (from UniProt P03956 20-135; P33435 141-472) (enzyme)
- percent of mouse collagenase-3 binding [1]: 95.7%
- percent of mouse collagenase-3 binding [2]: 84.4%

Substance: M(1-228)/H chimeric collagenase (from UniProt P33435 20-228; P03956 224-408) (enzyme)
- competition efficiency compared to full-length collagenase-3 [4]: > 90%
- percent of mouse collagenase-3 binding [1]: 85.3%
- percent of mouse collagenase-3 binding [3]: 41.9%
- percent of mouse collagenase-3 binding [2]: 85.9%

Substance: MH(213-267)/M chimeric collagenase (exon 5 replacement) (from UniProt P33435 20-212; P03956 213-267; P33435 268-472) (enzyme)
- percent of mouse collagenase-3 binding [1]: 95.5%
- percent of mouse collagenase-3 binding [3]: 98.7%
- percent of mouse collagenase-3 binding [2]: 99.1%

Substance: ^125I collagenase-3 of Example 3
- reduction of collagenase-3 internalization by RAP in osteoarthritis chondrocytes [5]: by 74.3%

Substance: ^125I collagenase-3 of Example 3 (enzyme)
- inhibition of collagenase-3 internalization by receptor-associated protein in control human chondrocytes [6]: 88.2%

Substance: human 72 kDa gelatinase (MMP-2) (from UniProt P08253 30-660) (enzyme)
- Specific binding (fmol/2.6 × 10^5 cells) [7]: 0

Substance: human 92 kDa gelatinase (MMP-9) (from UniProt P14780 20-707) (enzyme)
- Specific binding (fmol/2.6 × 10^5 cells) [8]: 3.9

Substance: human fibroblast collagenase-1 (MMP-1) (from UniProt P03956 100-469) (enzyme)
- Specific binding (fmol/2.6 × 10^5 cells) [7]: 0.1
- percent of mouse collagenase-3 binding [1]: 0%

Substance: human stromelysin-1 (MMP-3) (from UniProt P08254 18-477) (enzyme)
- Specific binding (fmol/2.6 × 10^5 cells) [7]: 0

Substance: recombinant mouse collagenase-3 (mMMP-13, residues 1-472) (from UniProt P33435 20-472) (enzyme)
- percent of mouse collagenase-3 binding [1]: 100%
- percent of mouse collagenase-3 binding [2]: 100%
